One block for each compound: values may come before it.
Experiments:
Assay in all cases: continuous absorbance assay, methyl viologen, initial rates
Settings in all cases: 200 µM methyl viologen, 100 µM sodium dithionite, 20 mM MOPS, 300 mM NaCl, pH 7.0, 30 °C, anaerobic
Eadh3 = tested on: T1, Eadh3; assay type: biochemical, Ellagibacter isourolithinifaciens
T1 construct: recombinant, expressed in G. urolithinfaciens, purified; bis-MGD enzyme without signal peptide; tag only in SI
Excerpt: continuous absorbance assay, methyl viologen, initial rates on Eadh3 | Eadh3 converted urolithin C to isourolithin A via C8-OH dehydroxylation | urolithin M6 was metabolized more readily by Eadh2 than by Eadh3

[1] = tested on: T2, O=c1oc2c(O)c(O)ccc2c2c(O)c(O)c(O)cc12; assay type: biochemical, Gordonibacter urolithinfaciens
T2 construct: recombinant, cumate-inducible expression in G. urolithinfaciens (called native host), purified anaerobically; bis-MGD enzyme without signal peptide; tag only in SI
Excerpt: continuous absorbance assay, methyl viologen, initial rates on Eadh1 | Eadh1 (C4-OH dehydroxylation of urolithin M5 to urolithin M6) | can accept urolithin D as a substrate to produce urolithin C

[2] = tested on: T2, O=c1oc2c(O)c(O)ccc2c2c(O)c(O)c(O)cc12; assay type: biochemical, Gordonibacter urolithinfaciens; remark: listed apart in the source
[3] = tested on: T3, O=c1oc2cc(O)ccc2c2c(O)c(O)c(O)cc12; assay type: biochemical, Gordonibacter urolithinfaciens
T3 construct: recombinant, cumate-inducible expression in G. urolithinfaciens (called native host), purified anaerobically; bis-MGD enzyme without signal peptide; tag only in SI

- Km (Eadh3): 19.9 ± 2.1 µM
Compound: O=c1oc2cc(O)ccc2c2cc(O)c(O)cc12 [urolithin C]

- Km (Eadh3): 78.4 ± 10.6 µM
Compound: O=c1oc2cc(O)ccc2c2c(O)c(O)c(O)cc12 [urolithin M6]

Compound: Eadh1 (Gordonibacter sp. 28C)
- Km [1]: 11.8 ± 2.5 µM
- kcat [1]: 8.60 ± 0.49 s⁻¹

Compound: Eadh2 (Gordonibacter sp. 28C)
- Km [2]: 34.1 ± 6.4 µM
- kcat [2]: 0.42 ± 0.02 s⁻¹
- Km [3]: 13.8 ± 2.9 µM
- kcat [3]: 0.65 ± 0.03 s⁻¹

From publication PMC12771579, “Distinct classes of gut bacterial molybdenum-dependent enzymes produce urolithins” (Proceedings of the National Academy of Sciences of the …, 2025)
